Key:
[1] = target: T1, SV40 Large T Antigen (T-Ag) (SV40, UniProt P03070 1-708); assay: co-immunoprecipitation from metabolically labeled AT-2 cardiomyocytes
T1 construct: also called SV40 T-Ag; recombinant SV40 T-Ag

[2] = target: T1, SV40 Large T Antigen (T-Ag); assay: immune precipitation / Western blot, NIH-3T3 cells co-transfected with CMV-p193myc and CMV-T-Ag

Binder	binding result [1]	binding result [2]
p193 (mouse p193, full length) (other, 35S-methionine labelled in the immune precipitation experiments, also called in vitro translated p193) MVGELRYREFRVPLGPGLHAYPDELIRQRVGHNGHPEYQIRWLILRRGDDGDRDSTVDCKAEHILLWMSDDEIYANCHKMLGENGQVIAPSRESTEAGALDKSVLGEMETDVKSLIQRALRQLEECVGTVPPAPLLHTVHVLSAYASIEPLTGIFKDRRVVNLLMHMLSSPDYQIRWSAGRMIQALSSHDAGTRTQILLSLSQQEAIEKHLDFDSRCALLALFAQATLTEHPMSFEGVQLPQVPGRLLFSLVKRYLHVTFLLDRLNGDAGDQGAQNNFSPEELNVGRGRLELEFSMAMGTLISELVQAMRWDGASSRPESSSSSTFQPRPAQFRPYTQRFRRSRRFRPRASFASFNTYALYVRDTLRPGMRVRMLENYEEIAAGDEGQFRQSNDGVPPAQVLWDSTGHTYWVHWHMLEILGFEEDIEDVIDIEELQELGANGALSIVPPSQRWKPITQLFAEPYVVPEEEDREESENLTQAEWWELLFFIRQLSEAERLHIVDLLQDHLEEERVLDYDMLPELTVPVDLAQDLLLSLPQQLEDSALRDLFSCSVYRKYGPEVLVGHLSYPFVPGAQPNLFGANEESEAKDPPLQSASPALQRLVESLGPEGEVLVELEQALGSEAPQETEVKSCLLQLQEQPQPFLALMRSLDTSASNKTLHLTVLRILMQLVNFPEALLLPWHEAMDACVTCLRSPNTDREVLQELIFFLHRLTTTSRDYAVILNQHGARDAISKVLEKHRGKLELAQELRDMVSKCEKHAHLYRKLTTNILGGCIQMVLGQIEDHRRTHRPIQIPFFDVFLRYLCQGSSEEMKKNRYWEKVEVSSNPQRASRLTDRNPKTYWESSGRAGSHFITLHMRPGVIIRQLTLLVAGEDSSYMPAWVVVCGGNSIKSVNKELNTVNVMPSASRVTLLENLTRFWPIIQIRIKRCQQGGINTRIRGLEVLGPKPTFWPVFREQLCRHTRLFYMVRAQAWSQDIAEDRRSLLHLSSRLNGALRHEQNFAERFLPDMEAAQALSKTCWEALVSPLVQNITSPDEDSTSSLGWLLDQYLGCREAAYNPQSRAAAFSSRVRRLTHLLVHVEPREAAPPVVAIPRSKGRNRIHDWSYLITRGLPSSIMKNLTRCWRSVVEEQMNKFLSASWKDDDFVPRYCERYYVLQKSSSELFGPRAAFLLAMRNGCADAVRRLPFLRAAHVKQQFARHIDQRIQGSRMGGARGMEMLAQLQRCLESVLIFSPLEIATTFEHYYQHYMADRLLSVGSSWLEGAVLEQIGPCFPSRLPQQMLQSLNVSEELQRQFHVYQLQQLDQELLKLEDTEKKIQVAHEDSGREDKSKKEEAIGEAAAVAMAEEEDQGKKEEGEEEGEGEDEEEERYYKGTMPEVCVLVVTPRFWPVASVCQMLNPATCLPAYLRGTINHYTNFYSKSQSRSSLEKEPQRRLQWTWQGRAEVQFGGQILHVSTVQMWLLLHLNNQKEVSVESLQAISELPPDVLHRAIGPLTSSRGPLDLQEQKNVPGGVLKIRDDSEEPRPRRGNVWLIPPQTYLQAEAEEGRNMEKRRNLLNCLVVRILKAHGDEGLHVDRLVYLVLEAWEKGPCPARGLVSSLGRGATCRSSDVLSCILHLLVKGTLRRHDDRPQVLYYAVPVTVMEPHMESLNPGSAGPNPPLTFHTLQIRSRGVPYASCTDNHTFSTFR	binds	
p193myc (p193 protein harboring a C-terminal myc epitope tag, from CMV-p193myc) (other, not shown: small tags and cut ends, Expressed in NIH-3T3 cells co-transfected with CMV-T-Ag; also called CMV-p193myc product) MVGELRYREFRVPLGPGLHAYPDELIRQRVGHNGHPEYQIRWLILRRGDDGDRDSTVDCKAEHILLWMSDDEIYANCHKMLGENGQVIAPSRESTEAGALDKSVLGEMETDVKSLIQRALRQLEECVGTVPPAPLLHTVHVLSAYASIEPLTGIFKDRRVVNLLMHMLSSPDYQIRWSAGRMIQALSSHDAGTRTQILLSLSQQEAIEKHLDFDSRCALLALFAQATLTEHPMSFEGVQLPQVPGRLLFSLVKRYLHVTFLLDRLNGDAGDQGAQNNFSPEELNVGRGRLELEFSMAMGTLISELVQAMRWDGASSRPESSSSSTFQPRPAQFRPYTQRFRRSRRFRPRASFASFNTYALYVRDTLRPGMRVRMLENYEEIAAGDEGQFRQSNDGVPPAQVLWDSTGHTYWVHWHMLEILGFEEDIEDVIDIEELQELGANGALSIVPPSQRWKPITQLFAEPYVVPEEEDREESENLTQAEWWELLFFIRQLSEAERLHIVDLLQDHLEEERVLDYDMLPELTVPVDLAQDLLLSLPQQLEDSALRDLFSCSVYRKYGPEVLVGHLSYPFVPGAQPNLFGANEESEAKDPPLQSASPALQRLVESLGPEGEVLVELEQALGSEAPQETEVKSCLLQLQEQPQPFLALMRSLDTSASNKTLHLTVLRILMQLVNFPEALLLPWHEAMDACVTCLRSPNTDREVLQELIFFLHRLTTTSRDYAVILNQHGARDAISKVLEKHRGKLELAQELRDMVSKCEKHAHLYRKLTTNILGGCIQMVLGQIEDHRRTHRPIQIPFFDVFLRYLCQGSSEEMKKNRYWEKVEVSSNPQRASRLTDRNPKTYWESSGRAGSHFITLHMRPGVIIRQLTLLVAGEDSSYMPAWVVVCGGNSIKSVNKELNTVNVMPSASRVTLLENLTRFWPIIQIRIKRCQQGGINTRIRGLEVLGPKPTFWPVFREQLCRHTRLFYMVRAQAWSQDIAEDRRSLLHLSSRLNGALRHEQNFAERFLPDMEAAQALSKTCWEALVSPLVQNITSPDEDSTSSLGWLLDQYLGCREAAYNPQSRAAAFSSRVRRLTHLLVHVEPREAAPPVVAIPRSKGRNRIHDWSYLITRGLPSSIMKNLTRCWRSVVEEQMNKFLSASWKDDDFVPRYCERYYVLQKSSSELFGPRAAFLLAMRNGCADAVRRLPFLRAAHVKQQFARHIDQRIQGSRMGGARGMEMLAQLQRCLESVLIFSPLEIATTFEHYYQHYMADRLLSVGSSWLEGAVLEQIGPCFPSRLPQQMLQSLNVSEELQRQFHVYQLQQLDQELLKLEDTEKKIQVAHEDSGREDKSKKEEAIGEAAAVAMAEEEDQGKKEEGEEEGEGEDEEEERYYKGTMPEVCVLVVTPRFWPVASVCQMLNPATCLPAYLRGTINHYTNFYSKSQSRSSLEKEPQRRLQWTWQGRAEVQFGGQILHVSTVQMWLLLHLNNQKEVSVESLQAISELPPDVLHRAIGPLTSSRGPLDLQEQKNVPGGVLKIRDDSEEPRPRRGNVWLIPPQTYLQAEAEEGRNMEKRRNLLNCLVVRILKAHGDEGLHVDRLVYLVLEAWEKGPCPARGLVSSLGRGATCRSSDVLSCILHLLVKGTLRRHDDRPQVLYYAVPVTVMEPHMESLNPGSAGPNPPLTFHTLQIRSRGVPYASCTDNHTFSTFR		binds
